According to US20200308303A1:

Assays:
[1] = molecular target: human ADAMTS13 (A Disintegrin And Metalloproteinase with a ThromboSpondin type 1 motif, member 13) (human) (UniProt Q76LX8); test: sandwich ELISA: dilution series of coated antibody (10 to 0.02 µg/mL), constant 15% normal human plasma; half maximal binding by nonlinear regression
[2] = molecular target: human ADAMTS13 (A Disintegrin And Metalloproteinase with a ThromboSpondin type 1 motif, member 13) (human) (UniProt Q76LX8); test: cell-based or functional assay

human ADAMTS13 (A Disintegrin And Metalloproteinase with a ThromboSpondin type 1 motif, member 13) (human), sequence (Q76LX8 75-1427): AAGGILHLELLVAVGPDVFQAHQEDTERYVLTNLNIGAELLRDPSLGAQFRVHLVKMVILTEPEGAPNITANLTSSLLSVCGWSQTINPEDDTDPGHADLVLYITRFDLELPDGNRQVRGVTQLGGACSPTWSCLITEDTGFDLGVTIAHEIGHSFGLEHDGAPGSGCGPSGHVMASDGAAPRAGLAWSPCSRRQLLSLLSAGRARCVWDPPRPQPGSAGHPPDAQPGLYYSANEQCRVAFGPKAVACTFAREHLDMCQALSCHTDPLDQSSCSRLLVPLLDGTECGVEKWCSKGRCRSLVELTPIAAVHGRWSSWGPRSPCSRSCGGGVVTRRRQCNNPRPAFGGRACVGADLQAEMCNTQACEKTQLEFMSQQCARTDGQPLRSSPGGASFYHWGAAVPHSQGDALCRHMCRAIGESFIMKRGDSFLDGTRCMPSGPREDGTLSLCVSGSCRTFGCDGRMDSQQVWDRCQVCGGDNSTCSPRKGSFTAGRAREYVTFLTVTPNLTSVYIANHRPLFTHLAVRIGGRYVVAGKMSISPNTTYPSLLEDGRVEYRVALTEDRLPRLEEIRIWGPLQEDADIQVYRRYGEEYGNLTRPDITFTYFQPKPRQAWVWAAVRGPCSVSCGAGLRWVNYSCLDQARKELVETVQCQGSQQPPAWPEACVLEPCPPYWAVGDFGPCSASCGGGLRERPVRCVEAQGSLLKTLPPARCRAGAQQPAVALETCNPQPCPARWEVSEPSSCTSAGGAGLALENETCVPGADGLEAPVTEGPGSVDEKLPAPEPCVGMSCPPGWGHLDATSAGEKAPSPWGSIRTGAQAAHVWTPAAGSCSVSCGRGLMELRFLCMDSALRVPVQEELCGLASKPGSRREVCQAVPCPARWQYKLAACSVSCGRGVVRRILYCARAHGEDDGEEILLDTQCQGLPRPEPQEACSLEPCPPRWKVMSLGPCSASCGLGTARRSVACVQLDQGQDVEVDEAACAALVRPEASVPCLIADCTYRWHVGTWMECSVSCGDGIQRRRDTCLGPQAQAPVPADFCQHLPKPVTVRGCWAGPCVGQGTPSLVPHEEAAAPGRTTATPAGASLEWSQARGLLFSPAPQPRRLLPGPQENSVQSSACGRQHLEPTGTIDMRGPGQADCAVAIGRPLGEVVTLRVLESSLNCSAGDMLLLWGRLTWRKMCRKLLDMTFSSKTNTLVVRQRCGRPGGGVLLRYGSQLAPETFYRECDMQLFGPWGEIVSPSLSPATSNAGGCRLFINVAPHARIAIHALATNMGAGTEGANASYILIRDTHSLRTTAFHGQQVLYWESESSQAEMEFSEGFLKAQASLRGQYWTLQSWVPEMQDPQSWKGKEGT

B1: monoclonal anti-ADAMTS13 antibody 17C7 (antibody, V domains shown)
VH: EVQLVESGGDLVKSGGSLKLSCAASGFIFSNYAMSWVRQTPEKRLEWGATITTGGFYTFYSDSVKGRFTISRDNAKNTLYLQMSSLRSEDTAMYYCARHRYDDYYALDYWGQGTSVTVSS
VL: ENVLTQSPAIMSTSPGEKVTMTCNVSSSVSYMRWFQQKSSTSPKLWIYDTSKLASGVPGRFSGSGSGHSYSLTISSMEADDVATYYCFQGNGYPLTFGAGTKLELK
modifications: Biotinylated when used as detector; the site is not stated and the letters cannot carry it.
half-maximal binding concentration (EC50) of coated antibody [1]: 0.51 µg/mL
half maximal inhibitory concentration (IC50) of ADAMTS13 activity in normal human plasma, FRETS-VWF73 assay [2]: 0.47 µg/mL
